Measurements taken from patent US20260250378A1.
pEC50: −log10 of the molar value. Blank lines part the entries; values can stand above or below the substance they belong to.

What was measured:
[1] = biological target: CNX-his antigen (Genscript) (human) (UniProt P27824); experiment: ELISA with serial dilutions of the antibody on coated His-tagged human CNX
[2] = biological target: CNX-mcherry fluorescent protein expressed in Huh7 cells; experiment: immunofluorescence, Huh7 CNX-mcherry cells minus plain Huh7 cells, anti-human Alexa 647
CNX-mcherry fluorescent protein expressed in Huh7 cells, sequence (P27824 21-592): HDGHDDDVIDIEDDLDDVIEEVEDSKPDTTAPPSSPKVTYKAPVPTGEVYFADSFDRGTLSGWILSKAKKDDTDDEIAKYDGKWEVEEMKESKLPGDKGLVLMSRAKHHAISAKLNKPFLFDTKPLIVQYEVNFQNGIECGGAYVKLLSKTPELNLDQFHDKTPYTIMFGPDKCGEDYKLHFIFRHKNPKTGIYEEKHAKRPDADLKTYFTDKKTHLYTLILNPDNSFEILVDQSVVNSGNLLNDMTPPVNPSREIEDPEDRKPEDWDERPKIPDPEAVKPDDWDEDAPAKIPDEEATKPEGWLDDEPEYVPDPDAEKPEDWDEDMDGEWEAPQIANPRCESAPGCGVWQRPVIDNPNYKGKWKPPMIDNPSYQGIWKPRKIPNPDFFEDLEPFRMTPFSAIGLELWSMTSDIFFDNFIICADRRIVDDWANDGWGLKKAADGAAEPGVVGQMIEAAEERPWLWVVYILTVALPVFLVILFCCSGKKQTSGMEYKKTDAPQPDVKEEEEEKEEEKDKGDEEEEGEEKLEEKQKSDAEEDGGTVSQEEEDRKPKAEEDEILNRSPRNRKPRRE

[3] = biological target: Recombinant human CANX protein fused with the Fc region of human IgG1 at the C-terminus (HuCANX_hFc) (human) (UniProt P27824); experiment: ELISA, IgG1 coated 2 ug/ml, biotinylated antigen titrated (EC50 is of the antigen), streptavidin-HRP; curve is flat, value lies beyond the range shown
Recombinant human CANX protein fused with the Fc region of human IgG1 at the C-terminus (HuCANX_hFc) (human), sequence (P27824 21-481 limits assumed): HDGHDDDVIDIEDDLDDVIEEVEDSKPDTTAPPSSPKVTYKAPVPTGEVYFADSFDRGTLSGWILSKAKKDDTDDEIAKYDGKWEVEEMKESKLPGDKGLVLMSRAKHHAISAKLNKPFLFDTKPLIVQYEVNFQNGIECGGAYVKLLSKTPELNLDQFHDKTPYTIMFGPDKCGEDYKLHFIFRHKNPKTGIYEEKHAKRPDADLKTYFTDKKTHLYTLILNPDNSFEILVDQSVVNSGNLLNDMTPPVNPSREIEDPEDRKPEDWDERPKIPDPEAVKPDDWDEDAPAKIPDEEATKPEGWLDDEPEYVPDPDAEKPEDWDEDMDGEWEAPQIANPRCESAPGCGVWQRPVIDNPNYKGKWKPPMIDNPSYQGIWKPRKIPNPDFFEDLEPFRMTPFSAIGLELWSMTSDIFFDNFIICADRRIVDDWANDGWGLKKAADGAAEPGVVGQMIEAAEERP

[4] = biological target: CNX-mcherry fluorescent protein expressed in Huh7 cells; experiment: immunofluorescence, Huh7 CNX-mcherry cells minus plain Huh7 cells, Alexa-coupled secondary

CNX-his antigen (Genscript) (human), sequence (P27824 21-481 limits assumed): as above

EC50 (read off the curve) [1]: 0.2 µg/mL
Substance: CNX ab10286 (Abcam) (antibody)

Intensity (CNX+ cells - CNX -ve) [2]: 107
Substance: negative control human IgG (antibody)

pEC50 [3]: 6.83
Substance: Neg Control (antibody)

Intensity (CNX+ cells - CNX -ve) [4]: 3630
Substance: CNX antibody ab22595 (Abcam)
